Experimental data reported in patent US20050153372A1.

Target: calmodulin (in the CaMKI and calcineurin activity assays)
Assay: cell-based or functional assay

inhibition of CaMKI kinase activity in vitro, IC50: 1.2 µM
inhibition of calcineurin phosphatase activity in vitro, IC50: 1 µM
Substance: phosphorylated DARPP-21
